The subject of data set [1] is cardiac and pancreatic amyloid. Particulars: SAP imaging; no reference printed at this sentence (refs [14], [15] for SAP imaging); cited from earlier work. The text has this: Currently, there are no FDA-approved agents available in the USA for quantitative whole body imaging of visceral amyloid in vivo. […] However, there is no evidence that either this or the recently FDA-approved Aβ tracer Amyvid™ will facilitate detection of amyloid deposits in other visceral organs. Numerous amyloid-binding radiotracers have been described, e.g ...

Another data set has as its system AA amyloid. Set-up: species or system H2-Ld-huIL-6 Tg Balb/c transgenic mice. Conditions: mouse, in vivo, iv. The method, then:
AA amyloidosis was induced in H2-Ld-huIL-6 Tg Balb/c transgenic mice that constitutively express the human interleukin-6 transgene, [21] by iv administration of 10 µg of isolated amyloid enhancing factor (AEF – a suspension of AA amyloid fibril extract, [22]) in 100 µL of sterile phosphate-buffered saline (PBS). Mice used in these studies were 4–6 wk post induction. These studies were carried out in strict accordance with a protocol approved by the University of Tennessee Institutional Animal Care and Use Committee. All procedures were approved by the IACUC and were performed in accordance with the guidelines provided by OLAW and the Guide for the Care and Use of Laboratory Animals.
Mice, wild type or those with AA-amyloid, were injected iv in the lateral tail vein with ∼10 µg (∼150 µCi) of radioiodinated (^123I or ^125I) peptide p5, p5R, p5R(1–24) or p5R mixed with 1 mg of unlabeled p5R peptide. […]
Samples of muscle, liver, spleen, pancreas, kidneys, heart, stomach, small and large intestines and lung tissue were harvested post mortem from every mouse. Each sample was placed into a tared, plastic vial, weighed and the ^125I or ^123I radioactivity measured using an automated Wizard 3 gamma counter (1480 Wallac Gamma Counter, Perkin Elmer). The biodistribution data were expressed as % injected dose/g tissue (% ID/g). […]

The values that follow come from PMC3672142, “A Binding-Site Barrier Affects Imaging Efficiency of High Affinity Amyloid-Reactive Peptide Radiotracers In Vivo” (PLoS ONE, 2013).

No end group written: not given here.

“SAP: serum amyloid P component, used as 123I-SAP for planar scintigraphic imaging of amyloid”: the “detection of cardiac and pancreatic amyloid” value in data set [1] is listed as “at best, poorly detected”.
With GGGYSRAQRAQARQARQAQRAQRAQARQARQ [p5R], the “radioactivity in liver, spleen, pancreas and intestines compared to WT mice” value with AA amyloid is “significant radioactivity seen in the liver, spleen, pancreas, and intestines as compared to the WT mice”.
